The nature of series [1]: Measurement of number of peptides per NP (passivation number). Format: physicochemical. As for the experimental part: The average number of CMPs on the NPs was determined by measuring the concentrations of free CMPs remaining in solution after the removal of the NPs from a series of incubation mixtures with varying CMP/NP ratios (FIG. 16 and Table 3).^36 The numbers of CMPs immobilized on the NP surfaces were 582, 444, and 399 for NP-1, NP-2, and NP-3, respectively. […] This may have been caused by surface anchoring of the chain ends that prohibited the staggered arrangement of the peptide chains required for the formation of triple helix.
Seven 10 μM Cys-CMP solutions with varying concentrations of citrate-stabilized gold NP (2˜14 nM) were prepared. The mixtures were incubated for 2 hours at 25° C. and the gold NPs were removed by centrifugation. The concentrations of free peptides remaining in the supernatant were determined from the UV-Vis absorbance at 215 nm with citrate ion background subtraction. The number of peptides per Au NP was calculated from the slope of the linear fit of the data points. (FIG. 17)

The next series deals with T1, type I collagen fibers (Bos taurus, UniProt P02453+P02465).
T1 construct: natural collagen (acid soluble, bovine type I); purchased Sigma
T1 sequence (P02453 162-1217 limits assumed): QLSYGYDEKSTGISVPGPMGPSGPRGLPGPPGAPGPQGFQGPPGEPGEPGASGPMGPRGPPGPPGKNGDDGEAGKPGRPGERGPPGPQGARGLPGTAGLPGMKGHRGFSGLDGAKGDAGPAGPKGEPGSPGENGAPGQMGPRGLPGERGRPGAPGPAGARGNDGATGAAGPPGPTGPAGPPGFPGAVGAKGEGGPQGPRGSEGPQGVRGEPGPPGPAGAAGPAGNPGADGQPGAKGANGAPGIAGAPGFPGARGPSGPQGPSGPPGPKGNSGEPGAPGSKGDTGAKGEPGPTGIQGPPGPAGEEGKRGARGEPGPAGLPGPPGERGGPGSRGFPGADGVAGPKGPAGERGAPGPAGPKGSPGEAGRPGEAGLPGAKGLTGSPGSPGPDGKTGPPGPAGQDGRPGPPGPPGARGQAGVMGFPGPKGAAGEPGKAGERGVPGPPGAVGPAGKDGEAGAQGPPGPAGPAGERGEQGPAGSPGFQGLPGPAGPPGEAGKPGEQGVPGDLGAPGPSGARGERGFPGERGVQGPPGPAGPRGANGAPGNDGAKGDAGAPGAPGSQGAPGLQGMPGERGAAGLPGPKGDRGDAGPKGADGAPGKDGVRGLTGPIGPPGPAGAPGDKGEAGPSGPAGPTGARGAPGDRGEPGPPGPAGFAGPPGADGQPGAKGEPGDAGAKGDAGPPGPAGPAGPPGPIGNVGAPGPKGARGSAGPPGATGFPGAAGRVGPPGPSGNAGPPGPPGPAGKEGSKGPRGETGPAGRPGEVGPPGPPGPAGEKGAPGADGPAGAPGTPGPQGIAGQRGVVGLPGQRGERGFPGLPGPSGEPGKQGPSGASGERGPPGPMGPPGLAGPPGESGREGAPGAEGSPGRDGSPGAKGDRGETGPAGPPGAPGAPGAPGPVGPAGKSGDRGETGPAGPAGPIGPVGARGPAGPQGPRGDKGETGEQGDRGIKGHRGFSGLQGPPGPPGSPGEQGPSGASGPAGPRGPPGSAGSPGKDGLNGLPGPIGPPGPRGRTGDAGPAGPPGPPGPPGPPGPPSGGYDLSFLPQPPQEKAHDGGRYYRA
T1 sequence (P02465 80-1117 limits assumed): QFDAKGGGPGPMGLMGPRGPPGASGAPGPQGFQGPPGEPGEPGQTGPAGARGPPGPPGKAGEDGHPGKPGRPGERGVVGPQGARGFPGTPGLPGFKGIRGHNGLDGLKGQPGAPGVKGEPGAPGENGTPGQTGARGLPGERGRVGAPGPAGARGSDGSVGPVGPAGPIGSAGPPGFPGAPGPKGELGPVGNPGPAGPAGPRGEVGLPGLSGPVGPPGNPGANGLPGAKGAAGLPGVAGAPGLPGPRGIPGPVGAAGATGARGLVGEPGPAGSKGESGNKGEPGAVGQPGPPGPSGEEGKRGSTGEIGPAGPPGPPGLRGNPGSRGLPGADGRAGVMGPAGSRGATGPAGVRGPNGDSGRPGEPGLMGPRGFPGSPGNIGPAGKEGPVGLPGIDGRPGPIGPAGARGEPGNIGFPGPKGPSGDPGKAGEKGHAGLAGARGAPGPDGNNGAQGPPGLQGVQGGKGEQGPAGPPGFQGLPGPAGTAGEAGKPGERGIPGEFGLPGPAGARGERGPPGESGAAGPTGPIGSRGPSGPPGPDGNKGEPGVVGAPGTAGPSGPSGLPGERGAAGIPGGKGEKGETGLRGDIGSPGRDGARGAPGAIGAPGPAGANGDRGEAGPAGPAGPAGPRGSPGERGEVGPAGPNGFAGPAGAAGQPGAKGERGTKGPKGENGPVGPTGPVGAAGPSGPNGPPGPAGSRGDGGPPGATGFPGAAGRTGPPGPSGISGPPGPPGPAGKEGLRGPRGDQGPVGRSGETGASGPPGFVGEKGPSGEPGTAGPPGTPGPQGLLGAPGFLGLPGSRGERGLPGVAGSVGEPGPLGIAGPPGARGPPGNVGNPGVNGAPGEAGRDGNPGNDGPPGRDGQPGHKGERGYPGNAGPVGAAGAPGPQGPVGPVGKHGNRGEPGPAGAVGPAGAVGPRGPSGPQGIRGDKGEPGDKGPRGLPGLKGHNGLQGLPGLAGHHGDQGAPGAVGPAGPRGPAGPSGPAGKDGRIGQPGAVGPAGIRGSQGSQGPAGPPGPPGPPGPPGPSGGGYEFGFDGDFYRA
In words: TEM analysis of NP binding to reconstituted type I collagen fibers. Conditions: phosphate buffer at 25° C. Also on record: species or system bovine. The method, then: Moreover, NP-3 seemed to bind to defined locations within the gap regions along the fiber axis (FIG. 19C). Due to the large particle size and limitations of transmission electron microscopy resolution, the exact locations of these binding sites could not be determined. Twice as many NP-3 particles per unit area was found in the gap regions (dark bands) than on the overlap regions (light bands) of the collagen fibers. This difference was abolished at incubation temperatures above 40° C. (FIG. 20).
Collagen fibers were regenerated by mixing 0.5 mL of acid soluble type I collagen (1 mg/mL) in 50 mM acetic acid solution with 1 mL of sodium phosphate buffer (10 mM, pH 8.25). The mixture was incubated at room temperature for 12 hours.
A drop (8 μL) of type I collagen solution (0.3 mg/mL in PBS containing 1% BSA) was added to a holey carbon TEM grid. NP-3 solution (3 nM in PBS containing 1% BSA) was added to the grid and incubated for 5 minutes at room temperature or at 40° C., followed by washing with deionized water. The collagen fibers were stained with uranyl acetate (1%).

Series [2] can be described thus: Dynamic light scattering of CMP functionalized gold NPs. Format: physicochemical. The method, then:
The thickness of the peptide layer on the gold NP surface was determined by dynamic light scattering (DLS) (FIG. 15). The peptide layer thicknesses of NP-1, NP-2 and NP-3 were 2.0 nm, 3.65 nm and 6.85 nm, respectively (Table 3).
Purified Cys-CMP (peptides 1′˜4′) (0.5 mL, 500 μM) was added to gold nanoparticle solution (5 mL, 17 nM), and the reaction mixture was incubated at room temperature for twenty-four hours. Excess CMPs were removed by repeated centrifugation and washing in deionized water.

Square brackets hold non-standard residues; d marks the D form. Ends that are not written are not given here. Hyp = O=C(O)[C@@H]1C[C@@H](O)CN1

As for “NP-4: gold nanoparticle functionalized with scrambled peptide 4′ (CGPG[Hyp]P[Hyp]PPGPP[Hyp]G[Hyp][Hyp]P[Hyp]G[Hyp]GG; also: N-terminal Cys bound to gold nanoparticle surface)”, in series [1], the “Number of peptides per NP” value came to 524 ± 59. Moreover, the “binding to type I collagen fibers” value with type I collagen fibers was “little binding”. The “Particle Size by DLS” value in series [2] is reported as 16.2 ± 3.1 nm. Further, in series [2] (DLS), the “Measured Peptide layer thickness” value came out at 1.5 nm.

Values taken from patent US8883964B2, “Compositions comprising modified collagen and uses therefor” (The Johns Hopkins University, priority 2004, dated 2014).
